Laboratory results: publication PMC7699706, “Responses of DNA Mismatch Repair Proteins to a Stable G-Quadruplex Embedded into a DNA Duplex Structure”

Assays:
[1] = target: T1, ecMutS (Escherichia coli, UniProt P23909 1-853); test: EMSA; 1 mM ADP, 5 mM MgCl2; MutS EMSA: 5 nM DNA, 20 mM HEPES-KOH pH 7.9, 5 mM MgCl2, 120 mM KCl, 0.5 mg/mL BSA, 1 mM nucleotide, 37 C 15 min; MutL EMSA: 100 nM DNA, 20 mM HEPES pH 8.0 (10); details: protein: recombinant, chain copies: 2, blunt
T1 sequence: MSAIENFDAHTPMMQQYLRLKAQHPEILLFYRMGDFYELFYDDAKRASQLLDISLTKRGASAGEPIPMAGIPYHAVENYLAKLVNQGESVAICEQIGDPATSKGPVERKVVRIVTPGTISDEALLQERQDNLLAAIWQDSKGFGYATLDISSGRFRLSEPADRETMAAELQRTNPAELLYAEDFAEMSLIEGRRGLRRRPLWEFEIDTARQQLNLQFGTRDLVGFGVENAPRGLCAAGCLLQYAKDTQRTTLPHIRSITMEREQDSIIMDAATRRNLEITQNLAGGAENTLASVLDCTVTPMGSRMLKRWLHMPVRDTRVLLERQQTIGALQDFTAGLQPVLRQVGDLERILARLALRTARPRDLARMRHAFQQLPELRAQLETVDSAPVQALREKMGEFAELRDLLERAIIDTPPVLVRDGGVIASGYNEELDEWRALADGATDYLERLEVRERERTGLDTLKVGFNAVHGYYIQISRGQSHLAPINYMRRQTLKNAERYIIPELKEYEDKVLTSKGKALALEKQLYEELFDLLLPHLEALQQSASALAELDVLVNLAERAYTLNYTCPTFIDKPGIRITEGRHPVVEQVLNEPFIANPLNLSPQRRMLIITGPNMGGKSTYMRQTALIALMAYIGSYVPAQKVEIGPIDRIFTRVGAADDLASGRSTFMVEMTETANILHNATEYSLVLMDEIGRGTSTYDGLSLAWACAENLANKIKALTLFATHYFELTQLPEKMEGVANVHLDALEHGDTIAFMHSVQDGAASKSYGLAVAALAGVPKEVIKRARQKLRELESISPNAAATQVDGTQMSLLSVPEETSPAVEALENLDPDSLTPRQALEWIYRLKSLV

[2] = target: T2, rsMutS (Rhodobacter sphaeroides strain 2.4.1, UniProt Q3IYI5 1-875); test: as above; details: protein: recombinant, tags: N-terminal His6 (pET15b), chain copies: 2, blunt
T2 sequence: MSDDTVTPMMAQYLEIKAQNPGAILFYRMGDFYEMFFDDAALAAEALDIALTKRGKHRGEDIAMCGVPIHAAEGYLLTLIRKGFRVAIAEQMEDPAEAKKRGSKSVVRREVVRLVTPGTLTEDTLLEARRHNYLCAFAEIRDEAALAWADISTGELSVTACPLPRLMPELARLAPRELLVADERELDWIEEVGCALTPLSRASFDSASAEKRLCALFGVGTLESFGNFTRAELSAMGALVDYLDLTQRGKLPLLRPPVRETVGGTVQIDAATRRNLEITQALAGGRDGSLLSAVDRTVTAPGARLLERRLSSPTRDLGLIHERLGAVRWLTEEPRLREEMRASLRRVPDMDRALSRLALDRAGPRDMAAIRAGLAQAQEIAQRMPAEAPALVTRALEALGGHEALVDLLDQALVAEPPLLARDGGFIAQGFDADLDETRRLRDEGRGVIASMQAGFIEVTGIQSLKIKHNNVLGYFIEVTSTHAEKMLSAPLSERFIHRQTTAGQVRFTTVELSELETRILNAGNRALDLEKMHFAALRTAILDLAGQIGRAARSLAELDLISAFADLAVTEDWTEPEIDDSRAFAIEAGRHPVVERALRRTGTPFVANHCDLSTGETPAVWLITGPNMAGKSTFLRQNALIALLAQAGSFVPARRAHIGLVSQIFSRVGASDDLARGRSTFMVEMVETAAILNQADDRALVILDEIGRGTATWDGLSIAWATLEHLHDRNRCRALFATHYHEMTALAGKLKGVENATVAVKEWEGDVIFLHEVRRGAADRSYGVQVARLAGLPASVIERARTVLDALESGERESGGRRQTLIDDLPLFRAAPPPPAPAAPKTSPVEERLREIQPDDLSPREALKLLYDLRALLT

[3] = target: T3, ecMutL (Escherichia coli, UniProt P23367 1-615); test: EMSA; no nucleotide, on ice, 100 nM DNA; MutS EMSA: 5 nM DNA, 20 mM HEPES-KOH pH 7.9, 5 mM MgCl2, 120 mM KCl, 0.5 mg/mL BSA, 1 mM nucleotide, 37 C 15 min; MutL EMSA: 100 nM DNA, 20 mM HEPES pH 8.0 (10); details: protein: recombinant; chain copies: 2; label: 3'-TAMRA on strand 2 (95G4); blunt; 19-nt insert in strand 2 folded as intramolecular parallel G4 within duplex
T3 sequence (P23367 whole entry): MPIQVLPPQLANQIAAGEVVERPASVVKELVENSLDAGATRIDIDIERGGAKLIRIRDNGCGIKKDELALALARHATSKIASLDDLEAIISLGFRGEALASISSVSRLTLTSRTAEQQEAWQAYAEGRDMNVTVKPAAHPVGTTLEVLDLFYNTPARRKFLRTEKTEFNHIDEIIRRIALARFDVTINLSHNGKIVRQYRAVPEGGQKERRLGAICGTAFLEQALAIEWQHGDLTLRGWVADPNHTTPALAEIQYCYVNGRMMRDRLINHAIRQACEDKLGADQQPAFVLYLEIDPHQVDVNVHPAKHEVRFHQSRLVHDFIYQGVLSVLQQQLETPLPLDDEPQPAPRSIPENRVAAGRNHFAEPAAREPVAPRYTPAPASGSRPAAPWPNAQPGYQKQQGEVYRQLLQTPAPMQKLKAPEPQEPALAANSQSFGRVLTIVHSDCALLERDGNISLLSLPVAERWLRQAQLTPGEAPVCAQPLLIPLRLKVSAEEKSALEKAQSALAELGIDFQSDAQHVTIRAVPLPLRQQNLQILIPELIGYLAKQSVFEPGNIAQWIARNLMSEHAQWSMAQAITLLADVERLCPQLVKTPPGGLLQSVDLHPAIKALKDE

[4] = target: T1, ecMutS; test: EMSA; 1 mM ATP, 5 mM MgCl2; MutS EMSA: 5 nM DNA, 20 mM HEPES-KOH pH 7.9, 5 mM MgCl2, 120 mM KCl, 0.5 mg/mL BSA, 1 mM nucleotide, 37 C 15 min; MutL EMSA: 100 nM DNA, 20 mM HEPES pH 8.0 (10); details: protein: recombinant, chain copies: 2, blunt
[5] = target: T2, rsMutS; test: as above; details: protein: recombinant, tags: N-terminal His6 (pET15b), chain copies: 2, blunt
[6] = target: T1, ecMutS; test: EMSA; 1 mM ATPgS, 5 mM MgCl2; MutS EMSA: 5 nM DNA, 20 mM HEPES-KOH pH 7.9, 5 mM MgCl2, 120 mM KCl, 0.5 mg/mL BSA, 1 mM nucleotide, 37 C 15 min; MutL EMSA: 100 nM DNA, 20 mM HEPES pH 8.0 (10); details: protein: recombinant; chain copies: 2; label: 3'-TAMRA on strand 2 (95G4); blunt; 19-nt insert in strand 2 folded as intramolecular parallel G4 within duplex
[7] = target: T2, rsMutS; test: as above; details: protein: recombinant; tags: N-terminal His6 (pET15b); chain copies: 2; label: 3'-TAMRA on strand 2 (95G4); blunt; 19-nt insert in strand 2 folded as intramolecular parallel G4 within duplex
[8] = target: T3, ecMutL; test: EMSA; no nucleotide, on ice, 100 nM DNA; MutS EMSA: 5 nM DNA, 20 mM HEPES-KOH pH 7.9, 5 mM MgCl2, 120 mM KCl, 0.5 mg/mL BSA, 1 mM nucleotide, 37 C 15 min; MutL EMSA: 100 nM DNA, 20 mM HEPES pH 8.0 (10); details: protein: recombinant, chain copies: 2, blunt
[9] = label: 3'-TAMRA on strand 2 (95G4), 19-nt insert in strand 2 folded as intramolecular parallel G4 within duplex
[10] = label: 3'-TAMRA on strand 2 (95(GT)8), 19-nt unstructured (GT)8 loop in strand 2
[11] = label: 3'-TAMRA on strand 2 (76T), perfect duplex
[12] = label: 3'-TAMRA on strand 2 (76T), single G/T mismatch

B1: 76/95G4-A/T (mixed)
DNA 1: TCCTTTCGCGCTTGGATCCTATGAGCGTTACTCGAGCATATGGCTCAGCTGCCAAGCACCAGTGTCAGCGTCCTAT
DNA 2: ATAGGACGCTGACACTGGTGCTTGGCAGCTGAGCCATATTTGGGTGGGTGGGTGGGTTGCTCGAGTAACGCTCATAGGATCCAAGCGCGAAAGGA
modifications: N6-methyl-dA at position 16 of strand 1 (Gm6ATC)
- Kd [1, 9]: 23 ± 5 nM
- Kd [2, 9]: 23 ± 3 nM
- Kd [3]: ~200 nM
- Kd [4, 9]: 32 ± 4 nM
- Kd [5, 9]: 23 ± 3 nM
- Kd [6]: 31 ± 4 nM
- Kd [7]: 46 ± 5 nM

B2: 76/95(GT)8-A/T (mixed)
DNA 1: TCCTTTCGCGCTTGGATCCTATGAGCGTTACTCGAGCATATGGCTCAGCTGCCAAGCACCAGTGTCAGCGTCCTAT
DNA 2: ATAGGACGCTGACACTGGTGCTTGGCAGCTGAGCCATATTTGTGTGTGTGTGTGTGTTGCTCGAGTAACGCTCATAGGATCCAAGCGCGAAAGGA
modifications: N6-methyl-dA at position 16 of strand 1 (Gm6ATC)
- Kd [1, 10]: 32 ± 3 nM
- Kd [2, 10]: 31 ± 3 nM
- binding signal [8, 10]: 1.9 fold lower binding extent than 76/95G4-A/T at 0.1 uM ecMutL
- Kd [4, 10]: 44 ± 6 nM
- Kd [5, 10]: 43 ± 5 nM

B3: 76/76-A/T (dsDNA)
DNA 1: TCCTTTCGCGCTTGGATCCTATGAGCGTTACTCGAGCATATGGCTCAGCTGCCAAGCACCAGTGTCAGCGTCCTAT
DNA 2: ATAGGACGCTGACACTGGTGCTTGGCAGCTGAGCCATATGCTCGAGTAACGCTCATAGGATCCAAGCGCGAAAGGA
modifications: N6-methyl-dA at position 16 of strand 1 (Gm6ATC)
- Kd [1, 11]: 38 ± 4 nM
- Kd [2, 11]: 51 ± 4 nM
- binding signal [8, 11]: > 3.7 fold lower binding extent than 76/95G4-A/T at 0.1 uM ecMutL (at least)
- Kd [4, 11]: 50 ± 10 nM
- Kd [5, 11]: 80 ± 30 nM

B4: 76/76-G/T (dsDNA)
DNA 1: TCCTTTCGCGCTTGGATCCTATGAGCGTTACTCGAGCATATGGCTCAGCTGCCAGGCACCAGTGTCAGCGTCCTAT
DNA 2: ATAGGACGCTGACACTGGTGCTTGGCAGCTGAGCCATATGCTCGAGTAACGCTCATAGGATCCAAGCGCGAAAGGA
modifications: N6-methyl-dA at position 16 of strand 1 (Gm6ATC)
- Kd [1, 12]: 35 ± 3 nM
- Kd [2, 12]: 27 ± 4 nM
- binding signal [8, 12]: > 3.7 fold lower binding extent than 76/95G4-A/T at 0.1 uM ecMutL (at least)
- Kd [4, 12]: 38 ± 4 nM
- Kd [5, 12]: 60 ± 10 nM
